The experiment deals with fibrillar amyloid-beta (UniProt P05067). As to the kind of experiment: SPR.
Chain of UniProt P05067 (P05067 672-713): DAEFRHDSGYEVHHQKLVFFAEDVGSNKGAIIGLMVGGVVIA

Consider “Galectin-3 (from UniProt P17931 1-250) (natural protein)”, for which the Kd (usually the free concentration of one partner at which half of the binding sites on the other are occupied at equilibrium, for simple one-to-one binding) is 9 nM.

These data come from publication doi:10.1101/2025.03.17.643790.
